Holding throughout (test): cross-linking
Experiment [1] has as its target MBP-Z(6His).
For experiment [2], the target named is MBP-Z(6His). This is another data set of the same source.
Experiment [3] has as its target MBP-Z(6Tyr).
The target of experiment [4] is MBP-Z(6His). This is another data set of the same source.
In experiment [5] the target is MBP-Z(6Tyr). The source holds these as a separate data set.
The target in experiment [6] is MBP-Z(6Tyr). This is another data set of the same source.
The target in experiment [7] is MBP-Z(6His). This is another data set of the same source.
The target of experiment [8] is MBP-Z(6Tyr). The source holds these as a separate data set.
Experiment [9] concerns the target MBP-Z(6His). This is another data set of the same source.
The target in experiment [10] is MBP-Z(6Tyr). The source holds these as a separate data set.

Experimental findings from article PMC11225796 are described below.

Like-named read-outs stand apart in the source and are kept apart here.

Regarding “Zspa affibody with FSY at site 36, Afb(36FSY) (designed binder)”, in the experiment with MBP-Z(6His) [1], the cross-linking efficiency (day 0) was 60.2%, the cross-linking efficiency (day 1) is 47.7%, the cross-linking efficiency (day 3) was determined as 27.5% and the cross-linking efficiency (day 5) came to 17.9%.

As for “Zspa affibody with PFY at site 36, Afb(36PFY) (designed binder)”, the cross-linking efficiency in the experiment with MBP-Z(6His) [2] came to 37.4%; with MBP-Z(6Tyr) [3], 26.8%; with MBP-Z(6His) [4], 21.4%; in the experiment with MBP-Z(6Tyr) [5], 5.3%; with MBP-Z(6His) [1] it was 5%; with MBP-Z(6Tyr) [6], 27.5%. Further, the cross-linking efficiency stood at 35.3% with MBP-Z(6His) [7], 33.7% in the experiment with MBP-Z(6Tyr) [8], 21.3% with MBP-Z(6His) [9] and 44.5% with MBP-Z(6Tyr) [10]. The cross-linking efficiency (1 mM Na2SiO3) in the experiment with MBP-Z(6His) [1] stood at 18.8%; with MBP-Z(6Tyr) [6], 45.7%. In addition, the cross-linking efficiency (no Na2SiO3) in the experiment with MBP-Z(6His) [1] is 36.9%; with MBP-Z(6Tyr) [6], 24.7%.
